Here are results for five molecules from patent US8329882B2, “Genetic control of mammalian cells with synthetic RNA regulatory systems” (California Institute of Technology, priority 2009, dated 2012).

In series [1] the test system is CTLL-2 cells. As to conditions: 100 U/ml IL-2 every 48 hours; cell count every 24 hours.
Procedure: Cells were cultured in media containing the indicated concentration of (a) theophylline and (b) tetracycline.
In the experiment shown in FIG. 19, 100 U/ml of IL-2 was fed to all cultures every 48 hours, and cell count was obtained every 24 hours by flow cytometry.
A further series has as its system JAK-STAT pathway. The experiment in a line: Western blot analysis of phosphorylated STAT5 levels. It counts as cell-based, mouse. The conditions noted are these: CffLuc cell line lacking the ribozyme switch system; 500 μM theophylline. On the procedure:
Additional assays on a clonal cell line harboring three copies of L2bulge9 (clone 1264-48) were performed to verify the mechanism of growth regulation and examine the dynamic behavior of the regulatory system to variations in theophylline availability. Cell cultures were grown for one week in the presence of 500 μM theophylline and continued for a second week in the absence of theophylline. Theophylline was reintroduced for another four days at the end of the study. […] CD19 levels returned to basal levels within 48 hours of theophylline removal from the culture. The theophylline-responsive increase in CD19 expression was repeated upon reintroduction of theophylline to culture media. IL-15 expression patterns were verified at the transcript level through quantitative RT-PCR (Example 21, FIG. 8). […]
Lysate samples were thawed on ice and a standard Bradford assay using Protein Assay Dye (Bio-Rad) was performed with a BSA standard to determine protein concentrations. […] Membranes stained for […] and p-STAT5 were washed 4 times with 100 ml TTBS and once with 100 ml TBS before fluorescent images were acquired and quantified with the Odyssey Infrared Imaging System (Li-Cor). Integrated band intensity was calculated with the Odyssey system using blank gel areas surrounding each band for background subtraction. […]

A further series relates to T-cell proliferation. The experiment in a line: In vivo T-cell proliferation study with biophotonic imaging of luciferase signal flux. The arrangement: species or system NOD/scid-IL2(ko) mice. On the procedure: To verify in vivo functionality of the T-cell proliferation regulatory system, we examined several clonal cell lines for theophylline-dependent growth in mice over time. Select clones were encased in a hydrogel matrix that contained either 0 μM or 500 μM theophylline and injected into the flanks of NOD/SCID-γc^−/− mice. […] Flux measurements over a 9-day period indicate an average of 40% increase in the growth rate of clone 1264-48 in the presence of […] (n1=4, n2=6, P=0.038 by Mann-Whitney U test).
Cells were harvested by centrifugation at 1200 rpm at 4° C. for 10 min, washed twice with PBS, resuspended in PBS at a concentration of 2×10^6 cells/ml, and split into two 50 μl aliquots. […] In vivo growth of the injected cells was monitored by biophotonic imaging. […]
Animals received intraperitoneal (i.p.) injections of 4.29 mg per mouse of freshly prepared luciferin substrate (Caliper Life Sciences; Hopkinton, Mass.) suspended in 150 μl of PBS. […] Luciferase activity was analyzed through Living Image Software 3.1 from Xenogen to quantify tumor region flux (photons per second).
Statistical analysis was performed on growth rate data using the Mann-Whitney U test to calculate two-tailed P values. The doubling time of injected cells was calculated based on the total luciferase signal flux data collected over the course of each in vivo study. […]

Series [2] deals with CTLL-2 cells. Description: In vitro growth assay for stable CTLL-2 cell lines. As to conditions: 500 μM theophylline, without exogenous IL-2. The format is cell-based, mouse. On the procedure:
Growth behavior of individual clones was characterized by culturing under various theophylline concentrations. […] In the experiment shown in FIG. 7, the cell lines were cultured at various theophylline concentrations, and cell growth was monitored by counting viable cells. Clones indicated as 1261-xx stably expressed cd19-tk-il15-L2bulge9(1x). Clone 1264-xx stably expressed cd19-tk-il15-L2bulge9(3×). Growth behaviors differ from clone to clone, as would be expected from non-site-specific integration of the transgene into the host chromosomes. Theophylline-responsive increase in cell growth is evident in fifteen of the sixteen tested clones, and the growth elevation is statistically significant for the sample set (P=0.0150, 0.0011, 0.0013 for 100 μM, 250 μM, and 400 μM, respectively, by Whitney-Mann U test).
CffLuc-pIL15 clones were cultured under regular conditions (RPMI 1640 media supplemented with 100 U/ml IL-2 every 48 hours, 0.2 mg/ml zeocin, no theophylline), washed twice with HBSS, and split into 5 identical aliquots in 6-well plates at approximately 0.01×10^6 cells/ml (4 ml/well). […] Cell density was calculated by dividing the number of detected live cells by the volume analyzed on the flow cytometer. […]

In series [3] the test system is CTLL-2 cells. The experiment in a line: Transient transfection in CTLL-2 cells, viability and fluorescence by flow cytometry. The format is cell-based, mouse. On the technique in general: In flow cytometry, cells or beads pass a laser one at a time.
For series [4], the system named is primary human TCM cells. The experiment in a line: TCM cell CD19 expression time-course study. It counts as cell-based. The conditions noted are these: 500 μM theophylline, five days; compared to the inactive ribozyme control; three copies of switch. The procedure: (§1) Since short production timeline and streamlined processing may be important in clinical applications, characterization studies of TCM cells were performed on bulk transduced, unsorted populations to examine the robustness of the regulatory system in the scenario in which no population refinement was performed. Transduced cells were cultured in the presence and absence of 500 μM theophylline for five days, with daily monitoring of CD19 levels and cell viability by staining with CD19 antibody, annexin V, and SYTOX AAD dead cell stain. […] TCM cells stably expressing the cd19-t2a-il15-L2bulge9(3×) construct were cultured in the presence and absence of 500 μM theophylline. […] Values reported represent mean±s.d. from triplicate samples.
On day 12 post stimulation, each cell line was used to seed four 25-ml cultures at 0.2×10^6 cells/ml. 500 μM theophylline was added to 2 flasks of each cell line, and no IL-2 or IL-15 was fed to any flask. Two aliquots from each culture were sampled every 24 hours for staining with PE-conjugated CD19 antibody (Beckman Coulter; Fullerton, Calif.). Fluorescence data were obtained with a Quanta Cell Lab Flow Cytometer using a 488-nm laser and a 575/30-nm band-pass filter.

The test system of series [5] is primary human TCM cells. The experiment in a line: TCM cell apoptosis time-course study (annexin V / SYTOX AAD / CD19 staining). It counts as cell-based. As to conditions: 500 μM theophylline, five days, compared to the inactive ribozyme control. On the procedure:
as §1
On day 12 post stimulation, each cell line was washed twice with HBSS and used to seed six 25-ml cultures at 0.45×10^6 cells/ml. […] Fluorescence data were obtained using a Quanta Cell Lab Flow Cytometer with both a 488-nm laser and an UV arc lamp. Pacific Blue, PE, and SYTOX AAD were detected through 465/30-nm band pass, 575/30-nm band pass, and 610-nm long pass filters, respectively, Only SYTOX AAD-cells were included in data analyses. The population of live CD19+ cells was determined by gating for annexin V−/PE+ cells and the population of apoptotic CD19+ cells was determined by gating for annexin V+/PE+ cells.

“Also recorded” adds a separate entry of the source.

On to `CN(C)[C@@H]1C(O)=C(C(N)=O)C(=O)[C@@]2(O)C(O)=C3C(=O)c4c(O)cccc4[C@@](C)(O)[C@H]3C[C@@H]12` [tetracycline], for which the “toxicity to CTLL-2 cells” value in the series with CTLL-2 cells [1] is reported as “some toxicity”.
Consider `Cn1c(=O)c2[nH]cnc2n(C)c1=O` [theophylline], for which the “nonspecific activation of JAK-STAT pathway” value in the series on JAK-STAT pathway was “did not nonspecifically activate the JAK-STAT pathway”. Also, the “toxicity to CTLL-2 cells” value with CTLL-2 cells [1] was “some toxicity”.

B1: inactive ribozyme: inactive, scrambled hammerhead ribozyme lacking an aptamer, SEQ ID NO: 30; cells expressing it serve as positive control (nucleic acid)
chain: CTCGAGGCGATCGCAAACAAACAAAGCTGTCACCGGATGTGCTTTCCGGTACGTGAGGTCCGTGAGGACAGAACAGCAAAAAGAAAAATAAAAATTTTTTTTTTAATTAATCTTGGGCCC
For the molecule B1, the “change in in vivo growth rate in response to theophylline addition” value with T-cell proliferation (500 μM theophylline vs none, 9-day period) is listed as “did not show statistically significant changes; also recorded: no statistically significant difference”. In addition, the “in vivo T-cell proliferation” value with T-cell proliferation (regardless of theophylline availability (0 or 500 μM), 14-day study) is “Uncontrolled T-cell proliferation”. In addition, in the series on CTLL-2 cells [2], the “growth rate in the presence of theophylline” value was “decreased growth rate”.

B2: L2bulge9: theophylline-responsive ribozyme switch, SEQ ID NO: 28 (nucleic acid)
chain: CTCGAGGCGATCGCAAACAAACAAAGCTGTCACCGGATGTGCTTTCCGGTCTGATGAGTCCGTTGTCCAATACCAGCATCGTCTTGATGCCCTTGGCAGTGGATGGGGACGGAGGACGAAACAGCAAAAAGAAAAATAAAAATTTTTTTTTTAATTAATCTTGGGCCC
modifications: L2bulge9
As for B2, in the series on CTLL-2 cells [3] (cd19-tk-t2a-il15 transgene, theophylline), the “switch control over cell viability and proliferation” value is “ON switch control over cell viability and proliferation”. Moreover, the “basal knockdown (viability)” value in the series on CTLL-2 cells [3] (three and four copies of switch, egfp-t2a-il2, viability comparable to No IL-2 Control and sTRSV Ribozyme) was “Stringent knockdown”. The “increase in CD19 expression levels” value with primary human TCM cells [4] is recorded as “up to 15%”. Besides, the “reduction in the apoptotic cell population” value in the series with primary human TCM cells [5] (apoptotic CD19+) was “up to 54%”. In addition, the “increase in the live cell population” value in the series on primary human TCM cells [5] (live CD19+) is given as “up to 24%”.

B3: L2bulge18tc: tetracycline-responsive ribozyme switch, SEQ ID NO: 29 (nucleic acid)
chain: CTCGAGGCGATCGCAAACAAACAAAGCTGTCACCGGATGTGCTTTCCGGTCTGATGAGTCCGTTGTCCAAAACATACCAGATTTCGATCTGGAGAGGTGAAGAATTCGACCACCTGGACGAGGACGGAGGACGAAACAGCAAAAAGAAAAATAAAAATTAATTAATCTTGGGCCC
modifications: L2bulge18tc
On to B3, for which, in the series with CTLL-2 cells [3] (tetracycline input, single- and multiple-copy switch systems), the “switch activity (fluorescence)” value is “tetracycline-responsive ON switch activity”.
